Where a chain is given by its changes, count along the chain named.

Consider seven molecules from publication PMC11103505, “AXL-specific single domain antibodies show diagnostic potential and anti-tumor activity in Acute Myeloid Leukemia” (Theranostics, 2024).

Sequences and labels used below:
B1: anti-AXL single domain antibody sdAb19 (VHH)
VHH: QVQLQESGGGMVQPGGSLRLSCAASGFTFTSYDMTWLRQTPGKGPEWVSTISTGGLRTYYGNSVKGRFIISRDNTKNTLYLQMNSLKPEDTALYYCARGPFTVADPRRGQGTQVTVSS
notes: source: E. coli WK6, periplasmic expression, purified (IMAC, SEC)
B2: anti-AXL single domain antibody sdAb20 (VHH)
VHH: B1 VHH with M11L, Q13R
notes: alpaca-derived; Re-cloned into pHEN6, which encodes the C-terminal His6 tag; also called lead compound; monovalent sdAb20; source: E. coli WK6, periplasmic expression, purified (IMAC, SEC); not shown: His6, C-terminal, kept
B3: anti-AXL single domain antibody sdAb20 (VHH)
VHH: B1 VHH with M11L, Q13R
notes: re-cloned into pHEN6 (C-terminal His6 tag), monomeric format; source: E. coli WK6, periplasmic expression, purified (IMAC, SEC)
B4: recombinant mouse AXL protein (receptor, UniProt Q00993 19-445, looked up)
chain: AHKDTQTEAGSPFVGNPGNITGARGLTGTLRCELQVQGEPPEVVWLRDGQILELADNTQTQVPLGEDWQDEWKVVSQLRISALQLSDAGEYQCMVHLEGRTFVSQPGFVGLEGLPYFLEEPEDKAVPANTPFNLSCQAQGPPEPVTLLWLQDAVPLAPVTGHSSQHSLQTPGLNKTSSFSCEAHNAKGVTTSRTATITVLPQRPHHLHVVSRQPTELEVAWTPGLSGIYPLTHCNLQAVLSDDGVGIWLGKSDPPEDPLTLQVSVPPHQLRLEKLLPHTPYHIRISCSSSQGPSPWTHWLPVETTEGVPLGPPENVSAMRNGSQVLVRWQEPRVPLQGTLLGYRLAYRGQDTPEVLMDIGLTREVTLELRGDRPVANLTVSVTAYTSAGDGPWSLPVPLEPWRPGQGQPLHHLVSEPPPRAFSWPWW
notes: AXL receptor tyrosine kinase, mouse; recombinant protein R&D Systems #854-AX; also called mouse Axl antigen; recombinant mouse antigen; source: bought: R&D Systems (#854-AX)
B5: anti-AXL single domain antibody sdAb25 (VHH)
VHH: QVQLQESGGGLVQPGGSLRLSCVASGSIFSIYAMGWYRQAPGKQRELVAGISSGGSTNYADSVKGRFTISRDNAKNTVYLQMNSLKPEDTAVYYCNYDLVEAVTGEYDYWGQGTQVTVSS
notes: as for B1
B6: anti-AXL single domain antibody sdAb4 (VHH)
VHH: B5 VHH with E101K
notes: as for B1
B7: anti-AXL single domain antibody sdAb12 (VHH)
VHH: B5 VHH with Q13K
notes: as for B1

The target of test [1] is B4. The test can be described thus: SPR; Biacore-T200; recombinant AXL protein immobilised on CM5 chip by amine coupling (EDC/NHS); sdAbs injected at ten concentrations from 1.9 to 500 nM; 25°C; HBS (20 mM HEPES pH 7.4, 150 mM NaCl, 3.4 mM EDTA, 0.005% Tween 20); 10 µL/min; 1:1 binding model. The note with it: both partners purified.
Test [2] has as its target T1, recombinant human AXL protein (human, UniProt P30530).
T1 construct: receptor tyrosine kinase AXL, human, recombinant protein from R&D Systems; also called hAXL; source: bought: R&D Systems
Briefly: SPR; competition assay for blocking of hAXL and hGAS6; which partner was immobilised is not shown. The note with it: both partners purified.

Test [3] concerns the target T2, AXL on AXL-overexpressing murine C1498 AML cells (Mus musculus, UniProt Q00993).
T2 construct: receptor tyrosine kinase AXL overexpressed in murine C1498 cells by lentiviral transduction; also called AXL^high C1498; source: C1498 cells, lentivirally transduced and positively selected, on cells
The test can be described thus: flow cytometry on cells; sdAb20 or sdAb20-Fc on AXL-expressing human and murine cancer cell lines, compared with the irrelevant control R3B23 or R3B23-Fc; read-out MFI. The note with it: one partner purified.

For test [4], the target named is T3, recombinant mouse AXL protein (Mus musculus, UniProt Q00993).
T3 construct: receptor tyrosine kinase AXL, mouse, recombinant protein from R&D Systems; also called recombinant mouse antigen; source: bought: R&D Systems
The test can be described thus: SPR; Biacore T200; recombinant AXL immobilised on CM5 chip by amine coupling; seven serial dilutions of sdAb flowed over; 25 °C; HBS (20 mM HEPES pH 7.4, 150 mM NaCl, 3.4 mM EDTA, 0.005% Tween 20); 1:1 binding model. The note with it: both partners purified.

A further test concerns the target T4, [111In]In-DTPA-sdAb20-Fc (alpaca (Vicugna pacos)).
T4 construct: as the VHH of Dm1; the His6 tag of sdAb20 was replaced with the mIgG2a-Fc region; about 80 kDa; also called [111In] anti-AXL sdAb20-Fc; 111In-labeled sdAb20-Fc; source: DTPA-conjugated and 111In-labelled, purified (SEC, NAP-5); not shown: Fc (mouse IgG2a), C-terminal, kept
Briefly: ELISA; radio-ELISA: recombinant mouse AXL coated on Lockwell C8 Maxisorp plates; serial dilution of [111In]In-DTPA-sdAb-Fc in PBS + 1% FBS; bound radioactivity by gamma counter; specific binding = total minus non-specific binding. The settings on record: both partners purified.

The target in test [5] is T5, recombinant human AXL protein (Homo sapiens, UniProt P30530).
T5 construct: AXL receptor tyrosine kinase, human; recombinant protein R&D Systems #154-AL; also called hAXL; AXL - Homo sapiens; source: bought: R&D Systems (#154-AL)
Briefly: SPR; Biacore-T200; recombinant AXL protein immobilised on CM5 chip by amine coupling (EDC/NHS); sdAbs injected at ten concentrations from 1.9 to 500 nM; 25°C; HBS (20 mM HEPES pH 7.4, 150 mM NaCl, 3.4 mM EDTA, 0.005% Tween 20); 10 µL/min; 1:1 binding model. The note with it: both partners purified.

T5 sequence (P30530 26-451): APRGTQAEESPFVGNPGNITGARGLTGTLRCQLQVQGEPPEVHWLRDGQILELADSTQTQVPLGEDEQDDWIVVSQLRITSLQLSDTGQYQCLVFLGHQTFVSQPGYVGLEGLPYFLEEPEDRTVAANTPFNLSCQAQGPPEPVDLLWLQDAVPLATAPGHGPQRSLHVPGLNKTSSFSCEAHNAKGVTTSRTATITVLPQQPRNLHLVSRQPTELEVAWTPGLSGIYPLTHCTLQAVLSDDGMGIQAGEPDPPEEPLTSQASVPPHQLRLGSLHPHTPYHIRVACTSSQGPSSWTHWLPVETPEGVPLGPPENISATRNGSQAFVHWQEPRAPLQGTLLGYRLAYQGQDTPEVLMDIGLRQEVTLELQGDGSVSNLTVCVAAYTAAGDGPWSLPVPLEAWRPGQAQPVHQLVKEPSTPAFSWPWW
T1 sequence (P30530 26-451): as above

Regarding B1, in test [1], the binding result is listed as “binds”.
As to B2, the IC50 in test [2] amounted to 119 nM. Further, the binding result in test [3] and in test [4] was “binds” in each case.
As to B3, the binding result in test [1] is recorded as “binds”.
Take B4: the Kd in test [111In]In-DTPA-sdAb20-Fc was 11.9 nM.
For B5, the binding result in test [1] and in test [5] was “binds” in each case.
On to B6, for which the binding result in test [1] and in test [5] was “binds” in each case.
For the molecule B7, the binding result in test [1] and in test [5] was “binds” each time.
